Reference: the Human Domainome abundance scans (Beltran et al. 2025)
± gives the uncertainty stated by the source.

B1: Homeobox protein cut-like 2, residues 895 to 963; numbered along this chain, O14529 (parent)
chain: EVDTLELTRQVKEKLAKNGICQRIFGEKVLGLSQGSVSDMLSRPKPWSKLTQKGREPFIRMQLWLSDQL

Variants of: B1
Assay: abundance fitness (aPCA) (normalised: wild type 0, dead -1); higher = more abundant; growth selection in yeast, the domain comes from the species named
Details: Homo sapiens

Variant	abundance fitness
P44V	-0.161 ± 0.035
P44I	-0.113 ± 0.056
S36P	-0.08 ± 0.028
S36M	-0.024 ± 0.028
S36I	0.027 ± 0.036
S36N	-0.045 ± 0.041
S36A	0.073 ± 0.035
S36V	0.064 ± 0.035
G31T	-0.274 ± 0.039
G31H	-0.059 ± 0.054
G31F	-0.317 ± 0.049
S33Y	-0.12 ± 0.047
S33P	0.03 ± 0.032
S33T	-0.036 ± 0.048
S33A	-0.042 ± 0.031
L69N	-0.058 ± 0.13
L69E	-0.068 ± 0.064
L69D	-0.188 ± 0.18
L69T	-0.199 ± 0.059
L69G	-0.056 ± 0.045
L69Q	-0.092 ± 0.074
L69I	-0.221 ± 0.11
I24W	0.103 ± 0.034
I24P	-0.934 ± 0.12

Variant	abundance fitness
I24Y	0.097 ± 0.059
L7H	-0.246 ± 0.073
L7K	0.032 ± 0.04
L7E	0.016 ± 0.051
L7S	-0.041 ± 0.032
L7Q	-0.124 ± 0.042
I20G	-0.412 ± 0.057
I20E	-0.575 ± 0.061
I20N	-0.453 ± 0.077
I20S	-0.342 ± 0.038
I20D	-0.415 ± 0.067
L50V	-0.522 ± 0.045
L50F	-0.315 ± 0.052
L50E	-1.11 ± 0.11
L50K	-1.3 ± 0.17
L50T	-0.808 ± 0.063
Q34R	0.282 ± 0.13
Q34W	0.088 ± 0.15
Q34C	-0.262 ± 0.18
Q34M	-0.06 ± 0.041
Q34D	-0.078 ± 0.14
Q34E	-0.254 ± 0.22
V11I	-0.18 ± 0.092
V11S	-0.166 ± 0.037

Variant	abundance fitness
V11L	-0.27 ± 0.035
V11P	-0.141 ± 0.051
V11R	-0.125 ± 0.029
V37M	-0.227 ± 0.051
V37L	0.016 ± 0.027
V37F	0.01 ± 0.042
V37P	-0.311 ± 0.028
V37G	-0.206 ± 0.048
V37E	-0.436 ± 0.087
L32Q	-0.304 ± 0.1
L32E	-0.227 ± 0.13
L32I	-0.063 ± 0.034
L32T	-0.211 ± 0.047
L32C	-0.136 ± 0.052
L32M	-0.032 ± 0.053
L32W	-0.043 ± 0.063
L32Y	-0.281 ± 0.035
L32P	-0.286 ± 0.057
R60F	-1.08 ± 0.14
R60W	-0.553 ± 0.095
R60T	-0.209 ± 0.033
R60V	-0.863 ± 0.091
R60L	-0.215 ± 0.027
R60A	-0.27 ± 0.067

Variant	abundance fitness
R60M	-0.38 ± 0.042
R60H	-0.462 ± 0.064
M61R	-0.935 ± 0.046
M61D	-0.702 ± 0.3
M61W	-0.379 ± 0.038
M40V	-0.046 ± 0.07
M40E	-0.475 ± 0.1
M40I	0.007 ± 0.08
M40G	-0.298 ± 0.077
M40K	-0.02 ± 0.074
I59G	-0.315 ± 0.064
I59D	-0.535 ± 0.1
I59E	0.028 ± 0.064
I59C	-0.278 ± 0.13
I59K	0.079 ± 0.051
I59N	-0.117 ± 0.051
I59T	-0.049 ± 0.034
E13D	0.117 ± 0.092
E13P	-0.135 ± 0.049
E13C	-0.205 ± 0.091
E13G	-0.2 ± 0.046
E13M	-0.008 ± 0.031
D39W	-0.328 ± 0.36
D39Q	0.005 ± 0.096

Variant	abundance fitness
D39T	-0.17 ± 0.11
D39C	-0.15 ± 0.26
D39G	0.026 ± 0.18
D39R	-0.456 ± 0.16
R9C	-0.21 ± 0.042
R9Q	-0.132 ± 0.045
R9D	-0.21 ± 0.059
R9W	-0.385 ± 0.03
R9S	-0.16 ± 0.033
K53Q	-0.146 ± 0.035
K53E	-0.017 ± 0.05
K53L	-0.101 ± 0.051
K53M	-0.373 ± 0.098
K53Y	-0.061 ± 0.14
K53G	-0.309 ± 0.045
K53H	-0.194 ± 0.063
R23A	-0.106 ± 0.039
R23P	-0.627 ± 0.051
R23V	-0.162 ± 0.03
R23M	-0.207 ± 0.034
R23W	-0.154 ± 0.044
D67Q	0.057 ± 0.068
D67I	-0.603 ± 0.074
E27D	-0.162 ± 0.046

Variant	abundance fitness
E27R	-0.019 ± 0.032
L41C	-0.452 ± 0.13
L41V	-0.518 ± 0.092
L41Q	-0.303 ± 0.037
L41S	-0.234 ± 0.032
C21R	-0.087 ± 0.031
C21P	0.027 ± 0.057
C21K	-0.034 ± 0.039
C21I	-0.115 ± 0.083
F25S	-0.721 ± 0.061
F25R	-0.568 ± 0.067
F25W	-0.053 ± 0.042
F25G	-0.9 ± 0.064
F25K	-0.62 ± 0.054
F25L	-0.351 ± 0.033
F25Y	-0.779 ± 0.1
V29T	-0.258 ± 0.034
V29Q	-0.381 ± 0.039
V29S	-0.325 ± 0.034
V29H	-0.394 ± 0.054
V29L	-0.108 ± 0.029
S42P	-0.159 ± 0.05
S42H	-0.007 ± 0.045
S42G	-0.272 ± 0.28

Variant	abundance fitness
S42L	-0.086 ± 0.026
W47T	-0.654 ± 0.062
W47R	-0.793 ± 0.077
W47M	-0.681 ± 0.053
W47P	-0.964 ± 0.057
W47V	-0.808 ± 0.044
Q22R	-0.062 ± 0.044
Q22G	-0.354 ± 0.049
Q22F	-0.182 ± 0.07
Q22H	-0.239 ± 0.12
Q22E	-0.011 ± 0.061
K28A	-0.19 ± 0.04
K28E	-0.026 ± 0.043
V2L	0.03 ± 0.027
G26D	-0.306 ± 0.084
G26W	-0.591 ± 0.035
G26K	-0.207 ± 0.049
G26Y	-0.169 ± 0.042
Q52I	-0.06 ± 0.086
Q52R	0.015 ± 0.032
Q52C	-0.038 ± 0.08
Q52H	-0.218 ± 0.079
Q52G	-0.18 ± 0.05
